± gives the standard deviation of the averaged measurements.
Experiments:
Saccharomyces cerevisiae [1] = test: protein stability index of tFT-peptide fusion (C-terminal peptide) (PSI (0-1 scale)); higher = more stable (slower turnover); settings: genetic background: wild type; temperature: 30 C
Saccharomyces cerevisiae [2] = test: as above
Experimental: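 MPS profiling in S. cerevisiae of the tFT-X12 degron library: putative degron peptides plus stable controls, 12 aa, fused to the C-terminus of a sfGFP-mCherry timer. Cells are FACS-sorted into 8 mCherry/sfGFP bins and deep-sequenced. PSI runs from 0 (unstable) to 1 (stable). Backgrounds are wild type, das1Δ and doa10Δ at 30 °C, and wild type, das1Δ, cdc34-1 and cdc53-1 at 37 °C; 2-3 technical replicates each.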
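Further: PSI is a weighted mean of sequencing reads over stability bins, variants kept only with over 10 reads, mCherry proximal and sfGFP distal, peptide attached via GGGS linker.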

| Sequence | protein stability index (Saccharomyces cerevisiae [1]) | further results |
| --- | --- | --- |
| WPPPPPYSPFSL | 0.737 ± 0.02 | – |
| WPVALAPTRLEI | 0.608 ± 0.072 | – |
| WQIRREMFECGL | 0.677 ± 0.025 | – |
| WRAGGGGGPAGV | 0.679 ± 0.029 | – |
| WRAGSGGGPLAS | 0.68 ± 0.043 | – |
| WRCAGGGGVGGG | 0.6956 ± 0.0011 | – |
| WRELGCFGVRGD | 0.732 ± 0.022 | – |
| WRLFFGVNLIKF | 0.622 ± 0.037 | – |
| WRSIQLVHDKRR | 0.6808 ± 0.0056 | – |
| WRVMCLQRCSGV | 0.541 ± 0.011 | – |
| WRYFLGKGRMSF | 0.742 ± 0.014 | – |
| WSDGGRGGGWGK | 0.656 ± 0.015 | – |
| WSPLFPLLASST | 0.678 ± 0.016 | – |
| WSREGGVVESVG | 0.709 ± 0.019 | – |
| WSRGGGGHKEAM | 0.639 ± 0.022 | – |
| WSRPAGVRSSLA | 0.7039 ± 0.00079 | – |
| WSRPVTFRIGLW | 0.653 ± 0.017 | – |
| WTGGEEGTAVQA | 0.676 ± 0.025 | – |
| WTGTTGQSLYLS | 0.733 ± 0.1 | – |
| WVAADTDGEPKH | 0.6986 ± 0.0057 | – |
| WVCLGWGVPRSG | 0.835 ± 0.031 | – |
| WVFSGTWSSVSG | 0.671 ± 0.027 | – |
| WVGGGGGPSGVV | 0.733 ± 0.042 | – |

| Sequence | protein stability index (Saccharomyces cerevisiae [1]) | further results |
| --- | --- | --- |
| WVGWVACGAGGG | 0.651 ± 0.061 | – |
| WVHTLHARIGCQ | 0.625 ± 0.046 | – |
| WVKGRVKIEGGQ | 0.68 ± 0.042 | – |
| WVLFWWRGRSGR | 0.665 ± 0.042 | – |
| WVPISPFLTPSH | 0.716 ± 0.025 | – |
| WVSILRWDACSR | 0.685 ± 0.014 | – |
| WVSRDFLVEAVW | 0.557 ± 0.026 | – |
| WVTSSTRGRSGS | 0.644 ± 0.033 | – |
| WWGCLGGRAGSR | 0.695 ± 0.028 | – |
| WWGFGRVCGGGV | 0.774 ± 0.092 | – |
| WYYTCSEFSIYN | 0.693 ± 0.0071 | – |
| YAAQLGLGVLVG | 0.6 ± 0.0077 | – |
| YACADVSDPLSV | 0.721 ± 0.019 | – |
| YAGDPEAAAEWG | 0.68 ± 0.052 | – |
| YCRGGGLAKREV | 0.689 ± 0.021 | – |
| YDCPLPPSGLTI | 0.688 ± 0.036 | – |
| YDYASTCGSCIY | 0.774 ± 0.024 | – |
| YERPIVAAVRSR | 0.724 ± 0.02 | – |
| YESHVLDRMDGR | 0.651 ± 0.026 | – |
| YFALLMLTPPPP | 0.636 ± 0.022 | – |
| YFDVFLRLAFSR | 0.655 ± 0.04 | – |
| YFFRLLYRLWSR | 0.676 ± 0.092 | – |
| YFLCPPTSPHRH | 0.736 ± 0.13 | – |

| Sequence | protein stability index (Saccharomyces cerevisiae [1]) | further results |
| --- | --- | --- |
| YGGAWGGVIHVC | 0.657 ± 0.0081 | – |
| YGILSVRGSLSR | 0.76 ± 0.065 | – |
| YGLSVSSLRLWP | 0.6853 ± 0.0051 | – |
| YGMETVAVYTEG | 0.666 ± 0.019 | – |
| YGPDQIGPRPGL | 0.69 ± 0.041 | – |
| YGRLPNWGASTE | 0.714 ± 0.014 | – |
| YIDDGVVENVRV | 0.681 ± 0.02 | – |
| YINFQKMRKKFD | 0.723 ± 0.04 | – |
| YINILKLVMNQD | 0.736 ± 0.052 | – |
| YIYIFLVWGWYC | – | protein stability index (Saccharomyces cerevisiae [2]; genetic background: cdc34-1, temperature: 37 C): 0.193 ± 0.056; protein stability index (Saccharomyces cerevisiae [2]; genetic background: cdc53-1, temperature: 37 C): 0.314 ± 0.016; protein stability index (Saccharomyces cerevisiae [2]; genetic background: das1 deletion, temperature: 30 C): 0.214 ± 0.033; protein stability index (Saccharomyces cerevisiae [2]; genetic background: das1 deletion, temperature: 37 C): 0.4232 ± 0.0041; protein stability index (Saccharomyces cerevisiae [2]; genetic background: doa10 deletion, temperature: 30 C): 0.103 ± 0.013; protein stability index (Saccharomyces cerevisiae [2]; genetic background: wild type, temperature: 30 C): 0.132 ± 0.0065; protein stability index (Saccharomyces cerevisiae [2]; genetic background: wild type, temperature: 37 C): 0.201 ± 0.018 |
| YKNKRSNKRKHK | 0.702 ± 0.0098 | – |
| YLCARGIFTLYV | 0.602 ± 0.034 | – |
| YLGCPSHLALPL | 0.721 ± 0.076 | – |
| YLGTTHTGTSHR | 0.701 ± 0.019 | – |
| YLGYADDLLIML | 0.707 ± 0.018 | – |
| YLPRLISAPVGP | 0.753 ± 0.076 | – |
| YLYMESTVESHL | 0.719 ± 0.025 | – |
| YMTWRGCGWSGG | 0.697 ± 0.1 | – |
| YPDNRGRGPRQP | 0.686 ± 0.082 | – |
| YPDPLSVSPPPA | 0.682 ± 0.097 | – |
| YPSLPTLCSKQP | 0.643 ± 0.084 | – |
| YPTLHEPHSPAL | 0.738 ± 0.052 | – |
| YPTLMRNGTEKT | 0.696 ± 0.017 | – |

| Sequence | protein stability index (Saccharomyces cerevisiae [1]) | further results |
| --- | --- | --- |
| YPYLLSPRPPPP | 0.628 ± 0.047 | – |
| YQPLWTNTITGT | 0.799 ± 0.17 | – |
| YRFSKELEQKGQ | 0.68281 ± 0.0003 | – |
| YRLLRINFALPI | 0.622 ± 0.025 | – |
| YSRPAPSAPPHL | 0.698 ± 0.016 | – |
| YSRRRKILRKSY | 0.615 ± 0.051 | – |
| YSSALLHPTSPV | 0.655 ± 0.064 | – |
| YSSLLPLSSPSG | 0.684 ± 0.04 | – |
| YSVLVSLLPPSL | 0.681 ± 0.031 | – |
| YTAPIIGIGDDG | 0.659 ± 0.036 | – |
| YTKFASLKRHTQ | 0.636 ± 0.034 | – |
| YTTLLVSTNRLS | 0.477 ± 0.082 | – |
| YVGLNHYCIDAL | 0.723 ± 0.054 | – |
| YVLLSRFYLPPL | 0.665 ± 0.02 | – |
| YVSLAHLRWGVE | 0.732 ± 0.055 | – |
| YVVMARWSRWYV | 0.522 ± 0.015 | – |
| YVWVPCIRSVLV | 0.491 ± 0.018 | – |
| YWGEGGCREGGE | 0.664 ± 0.056 | – |
| YWSAQGRVVCVL | 0.481 ± 0.07 | – |
| YYLAVGNRIASR | 0.688 ± 0.043 | – |
| YYPLRIADQNGN | 0.795 ± 0.054 | – |
| YYRARRFRQSRR | 0.709 ± 0.077 | – |

— the supplement of paper PMC10724198
